According to publication PMC3438196:

Columns and labels:
Experiment in all cases: two-hybrid; MAPPIT (mammalian two-hybrid) in intact HEK293T cells: bait on the EpoR/leptin receptor chimera, prey on gp130 fragments, pXP2d2-rPAP1-luciferase reporter; fold induction of luciferase, Epo-stimulated (10 ng/ml hEpo) over unstimulated; 6-well or 96-well calcium phosphate transfection
[1] = target: Apobec3G D130A MAPPIT bait (human) (UniProt Q9HC16)
[2] = target: Apobec3G V9A MAPPIT bait (human) (UniProt Q9HC16)
Sequence of Apobec3G V9A MAPPIT bait (human) (Q9HC16 whole entry V9A): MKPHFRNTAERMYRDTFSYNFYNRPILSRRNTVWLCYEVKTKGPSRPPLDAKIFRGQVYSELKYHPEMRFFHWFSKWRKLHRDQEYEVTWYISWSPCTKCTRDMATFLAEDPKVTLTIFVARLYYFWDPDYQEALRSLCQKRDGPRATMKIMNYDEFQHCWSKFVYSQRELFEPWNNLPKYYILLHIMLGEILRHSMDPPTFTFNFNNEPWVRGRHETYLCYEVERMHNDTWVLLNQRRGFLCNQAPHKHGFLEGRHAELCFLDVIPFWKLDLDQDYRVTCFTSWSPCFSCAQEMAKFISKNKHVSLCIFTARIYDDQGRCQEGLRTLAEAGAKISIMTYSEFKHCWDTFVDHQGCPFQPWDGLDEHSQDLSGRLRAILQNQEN

[3] = target: Apobec3G QE132-133AA MAPPIT bait (human) (UniProt Q9HC16)
Sequence of Apobec3G QE132-133AA MAPPIT bait (human) (Q9HC16 whole entry Q132A/E133A): as the sequence (Q9HC16 whole entry V9A) above, with A9V, Q132A, E133A counted along it

[4] = target: Apobec3G D128H MAPPIT bait (human) (UniProt Q9HC16)
Sequence of Apobec3G D128H MAPPIT bait (human) (Q9HC16 whole entry D128H): as the sequence (Q9HC16 whole entry V9A) above, with A9V, D128H counted along it

[5] = target: Apobec3G R11S MAPPIT bait (human) (UniProt Q9HC16)
Sequence of Apobec3G R11S MAPPIT bait (human) (Q9HC16 whole entry R11S): as the sequence (Q9HC16 whole entry V9A) above, with A9V, R11S counted along it

[6] = target: Apobec3G TK98-99AS MAPPIT bait (human) (UniProt Q9HC16)
Sequence of Apobec3G TK98-99AS MAPPIT bait (human) (Q9HC16 whole entry T98A/K99S): as the sequence (Q9HC16 whole entry V9A) above, with A9V, T98A, K99S counted along it

[7] = target: Apobec3G T32E MAPPIT bait (human) (UniProt Q9HC16)
Sequence of Apobec3G T32E MAPPIT bait (human) (Q9HC16 whole entry T32E): as the sequence (Q9HC16 whole entry V9A) above, with A9V, T32E counted along it

[8] = target: Apobec3G Y19A MAPPIT bait (human) (UniProt Q9HC16)
Sequence of Apobec3G Y19A MAPPIT bait (human) (Q9HC16 whole entry Y19A): as the sequence (Q9HC16 whole entry V9A) above, with A9V, Y19A counted along it

[9] = target: Apobec3G E110K MAPPIT bait (human) (UniProt Q9HC16)
Sequence of Apobec3G E110K MAPPIT bait (human) (Q9HC16 whole entry E110K): as the sequence (Q9HC16 whole entry V9A) above, with A9V, E110K counted along it

[10] = target: Apobec3G E110S MAPPIT bait (human) (UniProt Q9HC16)
Sequence of Apobec3G E110S MAPPIT bait (human) (Q9HC16 whole entry E110S): as the sequence (Q9HC16 whole entry V9A) above, with A9V, E110S counted along it

[11] = target: Apobec3G R136A MAPPIT bait (human) (UniProt Q9HC16)
Sequence of Apobec3G R136A MAPPIT bait (human) (Q9HC16 whole entry R136A): as the sequence (Q9HC16 whole entry V9A) above, with A9V, R136A counted along it

[12] = target: Apobec3G RD102-103SS MAPPIT bait (human) (UniProt Q9HC16)
Sequence of Apobec3G RD102-103SS MAPPIT bait (human) (Q9HC16 whole entry R102S/D103S): as the sequence (Q9HC16 whole entry V9A) above, with A9V, R102S, D103S counted along it

[13] = target: Apobec3G T32D MAPPIT bait (human) (UniProt Q9HC16)
Sequence of Apobec3G T32D MAPPIT bait (human) (Q9HC16 whole entry T32D): as the sequence (Q9HC16 whole entry V9A) above, with A9V, T32D counted along it

[14] = target: Apobec3G YS166-167AA MAPPIT bait (human) (UniProt Q9HC16)
Sequence of Apobec3G YS166-167AA MAPPIT bait (human) (Q9HC16 whole entry Y166A/S167A): as the sequence (Q9HC16 whole entry V9A) above, with A9V, Y166A, S167A counted along it

[15] = target: Apobec3G D128K MAPPIT bait (human) (UniProt Q9HC16)
Sequence of Apobec3G D128K MAPPIT bait (human) (Q9HC16 whole entry D128K): as the sequence (Q9HC16 whole entry V9A) above, with A9V, D128K counted along it

[16] = target: Apobec3G M12A MAPPIT bait (human) (UniProt Q9HC16)
Sequence of Apobec3G M12A MAPPIT bait (human) (Q9HC16 whole entry M12A): as the sequence (Q9HC16 whole entry V9A) above, with A9V, M12A counted along it

Sequence of Apobec3G D130A MAPPIT bait (human) (Q9HC16 whole entry D130A): as the sequence (Q9HC16 whole entry V9A) above, with A9V, D130A counted along it

In the case of “Gagpol MAPPIT prey (pMG2-Gagpol) (natural protein)”, the MAPPIT signal, % of WT [1] is reported as 103 % of WT, the MAPPIT signal, % of WT [2] is reported as 101 % of WT and the MAPPIT signal, % of WT [3] is reported as 80 % of WT. The MAPPIT signal, % of WT [4] was 60 % of WT, the MAPPIT signal, % of WT [5] was 83 % of WT and the MAPPIT signal, % of WT [6] was 79 % of WT. The MAPPIT signal, % of WT [7] was 81 % of WT, the MAPPIT signal, % of WT [8] was 36 % of WT and the MAPPIT signal, % of WT [9] was 84 % of WT. The MAPPIT signal, % of WT [10] was 80 % of WT, the MAPPIT signal, % of WT [11] was 48 % of WT and the MAPPIT signal, % of WT [12] was 63 % of WT. For the same substance, the MAPPIT signal, % of WT [13] was 111 % of WT, the MAPPIT signal, % of WT [14] was 80 % of WT and the MAPPIT signal, % of WT [15] was 98 % of WT. For the same substance, the MAPPIT signal, % of WT [16] was 25 % of WT.
